Results reported in paper PMC9802656 (Science Translational Medicine, 2022).

How the values were obtained:
SARS-CoV-2 S protein S1 = SARS-CoV-2 S protein S1 (SARS-CoV-2, ancestral (WT), UniProt P0DTC2); assay: ELISA; conditions: both partners purified
[1] = target: SARS-CoV-2 S protein receptor binding domain (RBD) (SARS-CoV-2, ancestral (WT), UniProt P0DTC2); assay: crystal structure; conditions: both partners purified

Binder	binding result (SARS-CoV-2 S protein S1)	binding result [1]
monoclonal antibody m31A7 (IgG) (antibody, V domains shown) VH: EVQLQQSGPEMVKPGASVKISCKTSGYTFTEYTIYWVKQSHGKSLEWLGGINPNIGDTTYNQKFKGKATLTVDTSSSTAYMELRSLTSEDSAVYYCAREVYNYSFAYWGQGTLVTVSA VL: DIVMSQSPSSLAVSVGEKVTMSCKSSQSLLYSSNQKNYLAWYQQKLGQTPKLLIYWASSRESGVPDRFTGSGSGTDFTLTISSVRAEDLAVYYCQQYYRYPLTFGVGTKLELK	binds	
m31A7 Fab (Fab, V domains shown) VH: EVQLQQSGPEMVKPGASVKISCKTSGYTFTEYTIYWVKQSHGKSLEWLGGINPNIGDTTYNQKFKGKATLTVDTSSSTAYMELRSLTSEDSAVYYCAREVYNYSFAYWGQGTLVTVSA VL: DIVMSQSPSSLAVSVGEKVTMSCKSSQSLLYSSNQKNYLAWYQQKLGQTPKLLIYWASSRESGVPDRFTGSGSGTDFTLTISSVRAEDLAVYYCQQYYRYPLTFGVGTKLELK		binds
